Columns and labels:
[1] = system: xylanase inhibitors present in wheat extract (WE)
[2] = system: Wheat xylanase inhibitors WXI11.5, eluted from the Xy1A1A affinity column with 50% ethylene glycol pH 11.5

Sequence of Pichia pastoris produced Xy1A1A_E79A inactive xylanase (chain, as listed by the source E79A): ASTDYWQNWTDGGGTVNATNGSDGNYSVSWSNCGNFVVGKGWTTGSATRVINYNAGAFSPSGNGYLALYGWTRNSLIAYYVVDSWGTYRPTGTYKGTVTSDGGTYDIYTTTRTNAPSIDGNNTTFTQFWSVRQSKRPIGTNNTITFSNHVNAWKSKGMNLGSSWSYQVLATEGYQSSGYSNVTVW

In the case of “Pichia pastoris produced Xy1A1A_E79A inactive xylanase”, the “recovery of xylanase activity (azo-WAXY, A595) of added Xy1A1A in wheat flour extract” value [1] was “Of the 24 isolates tested, 9 showed recovery of xylanase activity”, the % Residual Activity of Avizyme 1310 with WXI pH11.5 (0.58 µg/ml) and XylA1A E79A (100 µg/ml) [2] was 121% and the % Residual Activity of XylA1A with WXI pH11.5 (0.58 µg/ml) and XylA1A E79A (100 µg/ml) [2] was 96.1%. It also gave a Xylanase Activity (umol/min/mg) of Avizyme 1310 with WXI pH11.5 (0.58 µg/ml) and XylA1A E79A (100 µg/ml) [2] of 6880 µmol/min/mg and a Xylanase Activity (umol/min/mg) of XylA1A with WXI pH11.5 (0.58 µg/ml) and XylA1A E79A (100 µg/ml) [2] of 4420 µmol/min/mg.
